# Laboratory results taken from patent US20180214548A1 (SHANGHAI YUNYI HEALTHCARE AND TECHNOLOGY, published 2018).
# B1: chimeric anti-PD-1 antibody 21G8F11 (antibody, V domains shown)
# VH: EVQLLESGGGLAQPGGSLRLSCAASGFSFNTYLMHWVRQAPGKGLEWVSAISGGGGNTYYADSVKGRFTISRDNSKNTLYLQMNSLRAEDTAVYYCAKENRIPVAPFDYWGQGTLVTVSS
# VL: DIQMTQSPSTLSASVGDRVTITCRASQSISTWLAWYQQKPGKAPKLLIYKASSLESGVPSRFSGSGSGTEFTLTISSLQPDDLATYYCQQYNSFSWTFGQGTKVEIK
# notes: Purified from hybridoma of Harbour H2L2 mice: human variable regions, rat constant regions
# B2: chimeric anti-PD-1 antibody 76G5B3 (antibody, V domains shown)
# VH: QVQLVESGGGVVQPGRSLRLSCAASGFTFSDYGFHWVRQAPGKGLEWVAVIWYDGSNEYYTDSVKGRFTISRDNSKNTLYLQMNSLRAEDTAMYFCVVNPFDYWGQGTLVTVSS
# VL: DIQMTQSPSSLSAFVGDRVTITCRASQGINHYLAWYQQKPGKAPNLLILAASTLLSGVPSRFGGRGSGTDFTLIISSLQPEDVATYYCQKYDSAPYTFGQGTKLEIK
# notes: as for B1
# B3: chimeric anti-PD-1 antibody 32B5C7 (antibody, V domains shown)
# VH: EVQLLESGGGLVQPGGSLRLSCAASGFTFSSYAMSWVRQAPGKGLEWVSTISGSGGTTYYADSVKGRFTISRDNSKNTLYLQMNSLRAEDTAVYYCTLTGDPDYWGQGTLVTVSS
# VL: EIVLTQSPATLSLSPGERATLSCRASQSVSSYLAWYQQKPGQAPRLLIYDASKRATGIPARFSGSGSGTDFTLTISSLEPEDFAVYYCQQRNNWPLTFGGGTKVEIK
# notes: as for B1
# Molecular target: T1, full length human PD-1 on cells (human, UniProt Q15116 25-288)
# T1 construct: Also used here for PD-1 on human T cells/PBMC; also called CHO-K1-hPD-1; hPD-1
# T1 sequence (Q15116 25-288 limits assumed): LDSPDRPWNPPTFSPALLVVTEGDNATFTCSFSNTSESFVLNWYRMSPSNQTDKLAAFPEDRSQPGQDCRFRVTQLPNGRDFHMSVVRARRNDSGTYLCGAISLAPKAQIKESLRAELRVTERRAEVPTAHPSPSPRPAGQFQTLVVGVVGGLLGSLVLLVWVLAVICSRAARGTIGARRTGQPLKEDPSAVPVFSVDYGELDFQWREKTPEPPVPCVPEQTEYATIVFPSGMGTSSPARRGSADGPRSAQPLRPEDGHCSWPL
# Test: cell-based receptor-ligand blocking, flow cytometry: CHO-K1-hPD-1 cells, blocked ligand biotinylated PD-L1-Fc, streptavidin-Alexa 488
# Method: CHO-K1-hPD-1 cells were cultured and expanded in T-75 culture flasks to 60-80% confluence. The culture media was aspirated, and the cells were washed twice with PBS. The cells were treated with TrypLE™ Express (Invitrogen) and collected. Trypsin was neutralized by the addition of 8 mL culture medium, and cell counts were determined. […] The cells were blocked for 15 minutes at 37° C. Meanwhile, the wells of 96-well round-bottom plates were blocked with 200 uL blocking buffer for 1 hour at 37° C. The blocking buffer was discarded, and 200 uL cells were dispensed to each well of the 96-well plates (2×10^5 cells/well). The plates were centrifuged at 500 g for 5 minutes, and the supernatants were discarded. The cells were resuspended in 100 uL antibody prepared in blocking buffer. […] The plates were incubated at 4° C. for 90 minutes and washed twice with 200 uL blocking buffer. […] The plates were washed three times with blocking buffer and resuspended in 200 uL blocking buffer. The mean fluorescence intensity (MFI) was determined using FACS Calibur (BD).
row,IC50 (read off the curve) [nM],Binder
1,~6,B1
2,~0.8,B2
3,~6,B3

# Molecular target: T2, cyno PD-1^ECD-hFc protein (cyno monkey, UniProt B0LAJ3 25-167)
# T2 construct: Prepared by the method for Immunogen A; also called Cyno Monkey PD-1^ECD-hFc; cyno monkey PD-1-hFc; not shown: human IgG Fc fragment (hFc) and its junction to the ECD
# T2 sequence (B0LAJ3 entry or part of it limits assumed): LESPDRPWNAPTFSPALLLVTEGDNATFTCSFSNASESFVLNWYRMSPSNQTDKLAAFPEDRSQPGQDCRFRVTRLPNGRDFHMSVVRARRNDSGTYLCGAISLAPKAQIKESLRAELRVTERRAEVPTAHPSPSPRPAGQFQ
# Test: ELISA, coated cyno PD-1ECD-hFc; antibody 1 nM
# Method: (§1) 100 uL of the diluted recombinant proteins were added to each well of 96-well plate. The plates were sealed with plastic film and incubated at 4° C. overnight. The plates were washed twice with wash buffer (PBS+0.01% (v/v) Tween20), and incubated with blocking buffer (PBS+0.01% (v/v) Tween20+1% (w/w) BSA) at room temperature for 2 hours. The blocking buffer was aspirated away, and 100 uL of purified anti-PD-1 antibodies were added to each well and incubated for 2 hours at 37° C. The plates were washed three times with wash buffer (PBS+0.01% (v/v) Tween20). HRP-conjugated secondary antibody (Sigma) was added to each well and incubated for 2 hours at 37° C. After the plates were washed three times with wash buffer, 100 uL TMB substrate was added to each well and incubated for 30 minutes at room temperature. 100 uL stop solution (0.1N HCl) was added to each well to stop the reaction. The absorbance at 450 nm was measured with an ELISA plate reader (384plus SpectraMax, Molecular Devices).
row,OD450 nm,Binder
1,2.45,B1
2,1.4,B2
3,1.03,B3

# Molecular target: T1, full length human PD-1 on cells
# Test: flow cytometry, CHO-K1-hPD-1 cells; antibody 0.1 nM
# Excerpt: (§2) CHO-K1 cells were stably transfected with pIRES plasmid containing the nucleic acid sequence encoding full length human PD-1 (see Example 2, step 2) to generate CHO-K1 cells stably expressing human PD-1 (herein referred to as CHO-K1-hPD-1 cells). Other CHO-K1 were stably transfected with pIRES plasmid containing the nucleic acid sequence encoding full length cyno PD-1 to generate CHO-K1 cells stably expressing cyno PD-1 (herein referred to as CHO-K1-cPD-1 cells). CHO-K1-hPD-1 and CHO-K1-cPD-1 cells were cultured and expanded in T-75 culture flasks to 90% confluence. The culture media was aspirated, and the cells were washed twice with HBSS (Hanks Balanced Salt Solution, Invitrogen). The cells were treated with enzyme-free cell dissociation solution (Versene solution, Invitrogen) and collected. The cells were then washed twice with HBSS, cell counts were determined, and cells were resuspended with HBSS at 2×10⁶ cells/mL. Goat serum was added to the cell suspension to a final concentration of 1%, and the cells were blocked for 30 minutes on ice and then washed twice with HBSS. The cells were collected after centrifugation and resuspended in FACS buffer (HBSS+1% BSA, v/v) at 2×10⁶ cells/mL. 100 uL of the cell suspension were then added to each well of 96-well plate. 100 uL of purified anti-PD-1 antibodies from Example 2 were added to each well of the 96-well plate and incubated for 2 hours on ice. […] The samples were washed three times with FACS buffer, and 100 uL fixation buffer (4% paraformaldehyde v/v) were added to each well and incubated for 10 minutes. The cells were then washed twice with FACS buffer and resuspended in 100 uL FACS buffer. The mean fluorescence intensity (MFI) was determined using FACS Calibur (BD), and the results are shown in FIGS. 7-8 and in Tables 10-11.
row,Mean fluorescence intensity,Binder
1,22.8,B1
2,36.2,B2
3,13.2,B3

# Molecular target: T1, full length human PD-1 on cells
# Test: flow cytometry, CHO-K1-hPD-1 cells; antibody 100 nM
# Excerpt: as §2
row,Mean fluorescence intensity,Binder
1,661,B1
2,443,B2
3,253,B3

# Molecular target: T1, full length human PD-1 on cells
# Test: flow cytometry, CHO-K1-hPD-1 cells; antibody 10 nM
# Excerpt: as §2
row,Mean fluorescence intensity,Binder
1,696,B1
2,435,B2
3,156,B3

# Molecular target: T3, human PD-1^ECD-hFc protein (Immunogen A) (human, UniProt Q15116 25-167)
# T3 construct: Biotinylated for the Octet assay; also called PD-1-hFc; hPD-1^ECD-hFc; not shown: human IgG Fc fragment (hFc)
# T3 sequence (Q15116 25-167): as the sequence (B0LAJ3 entry or part of it limits assumed) above, with E2D, A10P, L19V, A35T, R75Q counted along it
# Test: ELISA, coated human PD-1ECD-hFc; antibody 100 nM
# Method: as §1
row,OD450 nm,Binder
1,2.73,B1
2,3.05,B2
3,3.05,B3

# Molecular target: T3, human PD-1^ECD-hFc protein (Immunogen A)
# Test: ELISA, coated human PD-1ECD-hFc; antibody 0.1 nM
# Method: as §1
row,OD450 nm,Binder
1,1.77,B1
2,2.43,B2
3,2.11,B3

# Molecular target: T2, cyno PD-1^ECD-hFc protein
# Test: ELISA, coated cyno PD-1ECD-hFc; antibody 100 nM
# Method: as §1
row,OD450 nm,Binder
1,2.61,B1
2,1.89,B2
3,1.66,B3
